T1: varicella-zoster virus glycoprotein H (varicella-zoster virus, UniProt P09260 18-841, limits assumed)
T1 sequence (looked up): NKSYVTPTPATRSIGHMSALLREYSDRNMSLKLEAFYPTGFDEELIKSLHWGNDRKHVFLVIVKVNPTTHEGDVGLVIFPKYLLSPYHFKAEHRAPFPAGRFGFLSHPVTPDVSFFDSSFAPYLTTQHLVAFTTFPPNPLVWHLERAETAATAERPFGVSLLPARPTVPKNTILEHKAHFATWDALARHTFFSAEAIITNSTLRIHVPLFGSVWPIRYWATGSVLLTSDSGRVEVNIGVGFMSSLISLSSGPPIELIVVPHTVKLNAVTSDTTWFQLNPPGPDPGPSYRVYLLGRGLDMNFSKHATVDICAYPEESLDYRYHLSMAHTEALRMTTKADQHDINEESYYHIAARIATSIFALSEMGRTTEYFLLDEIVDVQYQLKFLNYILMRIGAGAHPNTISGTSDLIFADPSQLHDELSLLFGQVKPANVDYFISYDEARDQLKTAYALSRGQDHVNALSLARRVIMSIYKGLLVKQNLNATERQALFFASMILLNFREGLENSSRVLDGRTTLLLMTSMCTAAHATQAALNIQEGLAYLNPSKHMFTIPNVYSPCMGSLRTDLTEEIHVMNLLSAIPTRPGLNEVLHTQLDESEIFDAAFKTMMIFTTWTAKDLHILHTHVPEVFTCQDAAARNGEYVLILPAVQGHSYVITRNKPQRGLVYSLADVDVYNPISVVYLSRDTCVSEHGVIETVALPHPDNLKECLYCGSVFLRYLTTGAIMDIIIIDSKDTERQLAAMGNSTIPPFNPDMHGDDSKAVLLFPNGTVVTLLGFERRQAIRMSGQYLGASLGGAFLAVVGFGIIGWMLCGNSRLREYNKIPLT

B1: 302-1G9 (antibody, IgG1, V domains shown)
VH: QVQLVQSGAEVKKPGASVKVSCEAFGYTFSNYGFTWVRQAPGQGLEWMGWISASNANTKYGQKFRGRVTLTTDTSTSTAYMELRNLGYDDTAMYYCARDRGGSLAMVVGLDHWGQGTLVTVSS
VL: DIQMTQSPTSLSASVGDRVTITCRASQSIGGYLNWYQQNPGKAPKLLIYAASTLQRGVPSRFSGGGSGTDFTLTITSLQPEDFATYYCQQCYSAELTFGGGTKVEIK
B2: RM-2D6 (antibody, IgG1, V domains shown)
VH: EVQLVESGGGVVQPGRSLRLSCAASGFMFSSYGMHWVRQAPGKGLEWVAAVSHDGTNDLYADSVKGRFSISRDNSKNTLYLQMNSLRAEDTAVYYCAKTSWARFLEWTFDYWGQGTLVTVSS
VL: DIQMTQSPSSLSASVGDRVTITCRASQSINRYLNWYQQKPGKAPKLLIYGASSLQSGVPLRFSGSGSGTDFTLTISSLQPEDFATYYCQQSHSTPTFGQGTRLEIK

Molecular target: T1, varicella-zoster virus glycoprotein H
Assay: cell-based or functional assay

Binder | In vitro neutralization IC50 (with complement) | In vitro neutralization IC50 (without complement)
B1 | 0.06 µg/mL | 0.09 µg/mL
B2 | 0.03 µg/mL | 0.23 µg/mL
